From patent publication US6693076

Legend:
[1] = target: 125I-[Threonine59]IGF-I binding sites in adult rat brain sections (level of the cerebellum and brain stem) (rat); assay: displacement of 0.01 nM 125I-[Thr59]IGF-I from rat brain sections; competitor at .025 mM
[2] = target: 125I-[Threonine59]IGF-I binding sites in adult rat brain sections (level of the cerebellum and brain stem) (rat); assay: displacement of 0.01 nM 125I-[Thr59]IGF-I from rat brain sections; competitor at .25 mM
[3] = target: 125I-[Threonine59]IGF-I binding sites in adult rat brain sections (level of the cerebellum and brain stem) (rat); assay: displacement of 0.01 nM 125I-[Thr59]IGF-I from rat brain sections; competitor at .10 mM
[4] = target: 125I-[Threonine59]IGF-I binding sites in adult rat brain sections (level of the cerebellum and brain stem) (rat); assay: displacement of 0.01 nM 125I-[Thr59]IGF-I from rat brain sections; competitor at 1 mM

percent max. bound [1] [%]	percent max. bound [2] [%]	percent max. bound [3] [%]	percent max. bound [4] [%]	Binder
132	167			ALLETYCATPAKSE [IGF-II(54-67)]
		82	76	SRVSRRSR [IGF-II(33-40)]
